According to patent US20230111363A1 (LMMUNOMETABOLISM DEVELOPMENT, published 2023):

Assays:
Human C1q = target: T1, Human C1q (human, UniProt P02745 23-245; P02746 28-253; P02747 29-245); assay: ELISA, antibody coated on plate, human C1q detected with anti-human C1q-HRP (results not shown)
T1 construct: Bought (MS Biomedical); also called complement component C1q

[1] = target: T2, human monocarboxylate transporter 1 (MCT1) (human, UniProt P53985 1-500); assay: competition MSD binding assay, antibody titrated with HEK WT cells expressing MCT1, apparent KD, 37 C, average of triplicate
T2 construct: Multi-pass transmembrane transporter, endogenous on HEK WT / HEK293T cells and on primary human T and B cells in the assays; also called human MCT1; SLC16A1
T2 sequence: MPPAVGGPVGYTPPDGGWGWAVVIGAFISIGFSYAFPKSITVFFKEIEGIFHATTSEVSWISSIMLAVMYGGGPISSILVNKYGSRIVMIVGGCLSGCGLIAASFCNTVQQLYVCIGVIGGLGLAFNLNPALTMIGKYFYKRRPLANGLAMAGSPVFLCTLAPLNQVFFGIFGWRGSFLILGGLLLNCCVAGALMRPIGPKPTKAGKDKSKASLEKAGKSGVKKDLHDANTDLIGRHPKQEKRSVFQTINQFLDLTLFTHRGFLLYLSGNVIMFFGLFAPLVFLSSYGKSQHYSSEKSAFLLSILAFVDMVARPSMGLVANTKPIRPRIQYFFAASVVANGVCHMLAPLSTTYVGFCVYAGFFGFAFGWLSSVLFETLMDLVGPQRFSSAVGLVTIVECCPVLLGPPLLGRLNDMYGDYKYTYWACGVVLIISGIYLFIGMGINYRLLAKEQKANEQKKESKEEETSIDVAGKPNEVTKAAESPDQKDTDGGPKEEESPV
Text: Plates were then washed 3 times with PBST. […] Plates were washed 3 times with PBST.

[2] = target: T2, human monocarboxylate transporter 1 …; assay: competition MSD binding assay, antibody titrated with HEK WT cells expressing MCT1, apparent KD, screening at 25 C
Method: The mix was incubated at 37° C. for 1-2 days. After incubation, the incubated samples were spun down for 5 min at 500×g to remove cells. A 96-well multi-array plate (Meso Scale Diagnostics, Cat. #L15XA-3) was coated at 4° C. overnight with 1 μg/mL of goat anti human FC in phosphate buffered saline (PBS). Following coating, plates were washed 3 times with 150 μL PBST (PBS with 0.05% Tween 20) and blocked with 150 μL/well of PBS 3% blocker A buffer (Cat #R93BA-1) at 25° C. for 1 hr. Plates were then washed 3 times with PBST. 50 μL of the preincubated antibody: cell dilution series was transferred to the wells and incubated at 25° C. with 700 rpm shaking for 1 hr. Plates were washed 3 times with PBST. Then 100 μL of 1 μg/mL anti-human kappa-biotin antibody (Cat. #2060-08) was added, and plates were incubated at 25° C. with 700 rpm shaking […]. Plates were washed 3 times with PBST, followed by addition of 100 μL of 1 μg/mL MSD Sulfo-tag streptavidin antibody (Meso Scale Diagnostics Cat. #R32 AD1), and plates were incubated at 25° C. with 700 rpm shaking for 1 hr. Plates were washed 3 times with PBST, 150 μL/well of 1× Read Buffer T was added to the wells and analyzed on a SECTOR® Imager 6000 (Meso Scale Diagnostics) 15 min after buffer addition. The apparent KD is determined by fitting a sigmoidal curve to the electrochemiluminescence (ECL) response vs. log (MCT1 receptor concentration) using assay development tool kit graphed with normalized ECL values.

[3] = target: T2, human monocarboxylate transporter 1 …; assay: cell-based or functional assay
[4] = target: T2, human monocarboxylate transporter 1 …; assay: cell-based or functional assay; remark: listed apart in the source
[5] = target: T2, human monocarboxylate transporter 1 …; assay: cell-based or functional assay; remark: listed apart in the source

T1 sequence (P02745 23-245 limits assumed, chain 1 of 3): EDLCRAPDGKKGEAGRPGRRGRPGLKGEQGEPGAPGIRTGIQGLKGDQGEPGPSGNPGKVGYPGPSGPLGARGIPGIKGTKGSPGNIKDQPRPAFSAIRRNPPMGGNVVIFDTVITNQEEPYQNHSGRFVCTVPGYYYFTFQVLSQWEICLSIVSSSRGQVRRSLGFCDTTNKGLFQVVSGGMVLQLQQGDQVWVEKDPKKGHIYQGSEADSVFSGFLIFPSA
T1 sequence (P02746 28-253 limits assumed, chain 2 of 3): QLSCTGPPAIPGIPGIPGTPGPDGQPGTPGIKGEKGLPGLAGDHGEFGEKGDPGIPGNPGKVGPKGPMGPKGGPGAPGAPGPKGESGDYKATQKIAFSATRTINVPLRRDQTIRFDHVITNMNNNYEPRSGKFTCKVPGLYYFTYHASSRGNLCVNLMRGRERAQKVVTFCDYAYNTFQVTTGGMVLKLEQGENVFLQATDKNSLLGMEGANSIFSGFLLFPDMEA
T1 sequence (P02747 29-245 limits assumed, chain 3 of 3): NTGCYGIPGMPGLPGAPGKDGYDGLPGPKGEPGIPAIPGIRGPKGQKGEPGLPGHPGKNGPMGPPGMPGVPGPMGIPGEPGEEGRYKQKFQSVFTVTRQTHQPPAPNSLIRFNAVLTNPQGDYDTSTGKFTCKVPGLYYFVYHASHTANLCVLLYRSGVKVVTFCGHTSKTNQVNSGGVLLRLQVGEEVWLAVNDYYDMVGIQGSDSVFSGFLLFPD

B1: anti-human MCT1 antibody Ab6 (antibody, human IgG1, kappa)
heavy: QVQLVQSGAEVKKPGASVKVSCTVSGRSLTNYHLQWVRQAPGQGLEWMGFIRSSGNTEYNSRFKSRVTMTRDTSTSTVYMELSSLRSEDTAVYYCARNRWYHGTYYSPGYYVMDAWGQGTLVTVSSASTKGPSVFPLAPSSKSTSGGTAALGCLVKDYFPEPVTVSWNSGALTSGVHTFPAVLQSSGLYSLSSVVTVPSSSLGTQTYICNVNHKPSNTKVDKRVEPKSCDKTHTCPPCPAPEAEGAPSVFLFPPKPKDTLMISRTPEVTCVVVDVSHEDPEVKFNWYVDGVEVHNAKTKPREEQYNSTYRVVSVLTVLHQDWLNGKEYKCKVSNKALPSSIEKTISKAKGQPREPQVYTLPPSREEMTKNQVSLTCLVKGFYPSDIAVEWESNGQPENNYKTTPPVLDSDGSFFLYSKLTVDKSRWQQGNVFSCSVMHEALHNHYTQKSLSLSPGK
light: EIVLTQSPGTLSLSPGERATLSCKGSQNIENYLAWYQQKPGQAPRLLIYNRHNLQTGIPDRFSGSGSGTDFTLTISRLEPEDFAVYYCYQYSDGYTFGGGTKVEIKRTVAAPSVFIFPPSDEQLKSGTASVVCLLNNFYPREAKVQWKVDNALQSGNSQESVTEQDSKDSTYSLSSTLTLSKADYEKHKVYACEVTHQGLSSPVTKSFNRGEC
notes: IgG1EN backbone
binding result (Human C1q): no binding
Kd [1]: 0.59 nM
Kd [2]: 1.27 nM
IC50 of inhibition of B cell proliferation, Average of 3 donors [3]: 2.95 nM
IC50 of inhibition of B cell proliferation, Donor1 [3]: 3.06 nM
IC50 of inhibition of B cell proliferation, Donor3 [3]: 3.38 nM
IC50 of inhibition of MCT1 mediated transport (bromopyruvate assay, HEK293T cells) [4]: 25 nM
IC50 of inhibition of CD4 T cell proliferation [5]: 3 nM
IC50 of inhibition of CD8 T cell proliferation [5]: 3 nM
